Laboratory results as given in patent US9993440.

Experiments:
[1] = system: T1, plasmin-cleavable crosslinker KNRVK (bisacryloylated Lys-Asn-Arg-Val-Lys)
T1 sequence: KNRVK

[2] = system: T2, MMP-cleavable crosslinker KLGPAK (Lys-Leu-Gly-Pro-Ala-Lys)
T2 sequence: KLGPAK

plasmin, sequence (P00747 20-580): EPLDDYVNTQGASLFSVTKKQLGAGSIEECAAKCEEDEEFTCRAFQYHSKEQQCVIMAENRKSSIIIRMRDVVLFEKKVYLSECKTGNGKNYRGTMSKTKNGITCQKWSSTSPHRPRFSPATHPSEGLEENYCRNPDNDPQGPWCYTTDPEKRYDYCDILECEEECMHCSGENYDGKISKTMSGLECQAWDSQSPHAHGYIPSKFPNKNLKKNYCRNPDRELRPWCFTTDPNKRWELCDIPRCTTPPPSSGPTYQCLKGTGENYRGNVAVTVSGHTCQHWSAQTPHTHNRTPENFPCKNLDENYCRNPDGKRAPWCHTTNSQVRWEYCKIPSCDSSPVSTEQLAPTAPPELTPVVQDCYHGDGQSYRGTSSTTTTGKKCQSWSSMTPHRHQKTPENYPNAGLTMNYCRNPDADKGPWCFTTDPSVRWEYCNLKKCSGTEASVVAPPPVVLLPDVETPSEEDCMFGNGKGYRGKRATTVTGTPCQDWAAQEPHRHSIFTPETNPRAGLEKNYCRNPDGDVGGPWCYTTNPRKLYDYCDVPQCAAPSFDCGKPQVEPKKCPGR
plasmin, sequence (P00747 581-810): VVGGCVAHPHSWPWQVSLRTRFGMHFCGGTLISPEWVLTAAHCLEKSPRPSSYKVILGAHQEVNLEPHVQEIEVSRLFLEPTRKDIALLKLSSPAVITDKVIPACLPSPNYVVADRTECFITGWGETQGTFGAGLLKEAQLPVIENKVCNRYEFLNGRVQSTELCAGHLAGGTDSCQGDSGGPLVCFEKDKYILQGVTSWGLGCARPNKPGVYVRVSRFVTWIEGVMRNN

In the case of “collagenase (a bacterial equivalent of MMP)”, the “release of BSA from nBSANRV (SDS-PAGE, 30 min)” value [1] is reported as “nBSANRV without exposure to plasmin (line 2) or after exposure to collagenase (line 4) does not show any well-defined band” and the “degradation of the polymer shells of nBSALGPA (DLS)” value [2] is reported as “Exposing nBSALGPA to collagenase results in specific degradation of the polymer shells”.
For plasmin, the “VEGF released from nVEGF formed with 100% degradable crosslinker (ELISA, with plasmin)” value [1] was “released 95% of the VEGF used to form the nanocapsules”, the “release of BSA from nBSANRV (SDS-PAGE, 30 min)” value [1] was “does exhibit a well-defined band (line 3) similar to that of native BSA upon exposure to plasmin” and the “release percentage of VEGF from de-nVEGFplasmin (100%-peptide crosslinker) (ELISA)” value [1] was “plasmin-incubated nVEGF showed about 60% release percentage”. For the same substance, the “release of BSA from nBSALGPA (SDS-PAGE, 30 min)” value [2] was “plasmin is incapable of triggering release of BSA from MMP-specific nBSALGPA”.
trypsin was tested, and the “release of VEGF from de-nVEGFplasmin (100%-peptide crosslinker) (ELISA)” value [1] was “only extended periods of incubation with trypsin and collagenase IV had releases of VEGF”.
